Drawing on patent US8354392B2, “Drug-introduced photo-crosslinked hyaluronic acid derived gel” (priority 2005, dated 2013), this text covers viscosity, Extrusion feeling and Extruded state for five substances.

Holding throughout (format): physicochemical
Data set [1] in a line: Viscosity measured with a rotation viscometer. As to conditions: gel from 1% solution in phosphate buffered physiological saline, photoirradiated, heat treatment; rotation viscometer at 20° C., standard cone (1°34′, 1 rpm). As for the experimental part:
A 1% phosphate buffered physiological saline solution of the obtained naproxen-introduced photo-reactive HA (photo-reactive group: cinnamic acid) was prepared, and filled in a 5 mL glass syringe.
(§1) Evaluation was carried out in accordance with the following criteria.

Data set [2] is described as follows: Extrusion feeling through a 23 gauge injection needle. Particulars: whole gel (2 ml to 5 ml) in 5 ml syringe, 23 gauge needle, limit pressure 0.5 to 5 kg/cm^2. Set-up: key: ◯: easily extruded; X: difficulty extruded. The procedure:
Evaluation was carried out in accordance with the following criteria. ◯: easily extruded X: difficulty extruded Incidentally, with regard to the criteria for the extrusion feeling, within the range of a limit pressure (0.5 to 5 kg/cm^2), when a whole gel (2 ml to 5 ml) filled in a syringe having a volume of 5 ml was extruded through an injection needle of 23 gauge, it was evaluated to as easily extruded (◯). Also, according to the same operation, when not a whole gel filled in a syringe was extruded, for example, by clogging due to insoluble materials, it was evaluated to as difficulty extruded (X).

The nature of data set [3]: Extrusion state from the tip of a 23 G injection needle (characteristics). Set-up: key: ◯: formed a mass or a lump having a shape-maintaining property at the tip of the injection needle; X: did not form a mass. Particulars: slowly extruded from an injection needle with 23 G downward. The procedure: as §1

Usually viscosity stands for the resistance of a fluid to flow. Regarding “actarit-introduced photo-crosslinked HA gel [Example 8]”, the viscosity in data set [1] is given as 10.8 Pa·s. Moreover, in data set [2], the Extrusion feeling result is “◯”. For the same substance, the Extruded state result in data set [3] is reported as “◯”.
“etodolac-introduced photo-crosslinked HA gel [Example 7]”: the viscosity in data set [1] was found to be 12.7 Pa·s. Further, the Extrusion feeling result in data set [2] was “◯”. Moreover, the Extruded state result in data set [3] is listed as “◯”.
Regarding “felbinac-introduced photo-crosslinked sodium hyaluronate gel [Example 5]”, the viscosity in data set [1] worked out at 7.32 Pa·s. In data set [2], the Extrusion feeling result is on record as “◯”. For the same substance, the Extruded state entry in data set [3] is “X”.
Taken in the same sequence, the figures for “flurbiprofen-introduced photo-crosslinked HA gel [Example 4]” were 21.2 Pa·s, “◯” and “◯”.
Taken in the same sequence, the figures for “ibuprofen-introduced photo-crosslinked HA gel [Example 3]” were 13.1 Pa·s, “◯” and “◯”.
